Each block holds one binder with its values, some of them ahead of it.
How the values were obtained:
[1] = target: APLNR(K235)-cpGFP expressed in zebrafish embryos (human) (UniProt P35414)
[2] = target: APLNR(K235)-cpGFP expressed in zebrafish embryos (human) (UniProt P35414); remark: listed apart in the source
[3] = target: APLNR(K235)-cpGFP expressed in zebrafish embryos (human) (UniProt P35414); remark: listed apart in the source
[4] = target: APLNR(F233)-cpGFP (human) (UniProt P35414)
[5] = target: APLNR(K235)-cpGFP (human) (UniProt P35414)

cpGFP fluorescence intensity of the biosensor in zebrafish embryos at 6 hpf, after heat shock-induced ubiquitous apln overexpression, against wildtype siblings [1]: 27 % increase
cpGFP fluorescence intensity of the biosensor in intersegmental vessels of zebrafish embryos at 28 hpf, after heat shock-induced apln overexpression, against control siblings [2]: 250 % increase
cpGFP fluorescence intensity of single cells at 1 to 5 cell distances from an apln-expressing cell, zebrafish embryos at 6 hpf; reduction against distance 1 [3]: 23 % reduction
B1: zebrafish Apelin (ligand)
chain: GPMASTEHSKEIEEVGSMRTPLRQNPARAGRSQRPAGWRRRRPRPRLSHKGPMPF

cpGFP fluorescence intensity of the biosensor in zebrafish embryos at 6 hpf, after heat shock-induced ubiquitous apela overexpression, against wildtype siblings [1]: 27 % increase
Binder: DKHGTKHDFLNLRRKYRRHNCPKKRCLPLHSRVPFP (ligand) [zebrafish Apela]

EC50 of the increase of cpGFP fluorescence (conformational change of the biosensor), stable HEK293T cells, 37 °C [4]: 7 nM
EC50 of the increase of cpGFP fluorescence (conformational change of the biosensor), stable HEK293T cells, 37 °C [5]: 8 nM
Binder: QRRCMPLHSRVPFP [Apela(19-32)]

Source: publication PMC12280157
